The values below come from PMC12768534 (2025).

One test concerns the target T1, murine γc (murine, UniProt P34902 23-369).
T1 chain: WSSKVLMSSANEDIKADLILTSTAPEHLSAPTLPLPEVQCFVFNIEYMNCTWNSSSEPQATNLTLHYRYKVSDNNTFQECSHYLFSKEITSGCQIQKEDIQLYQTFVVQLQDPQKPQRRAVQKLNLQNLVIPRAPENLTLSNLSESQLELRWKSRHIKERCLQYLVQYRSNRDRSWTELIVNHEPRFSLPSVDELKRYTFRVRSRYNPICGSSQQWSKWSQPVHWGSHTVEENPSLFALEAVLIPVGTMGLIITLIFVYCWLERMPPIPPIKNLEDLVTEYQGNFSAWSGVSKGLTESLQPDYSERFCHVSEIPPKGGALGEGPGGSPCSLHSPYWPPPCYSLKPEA
The test is described as follows: BLI; in presence of mIL-21R (mIL-21R/mγc).

Test [1] addresses T2, human common cytokine receptor γ chain (human, UniProt P31785 23-369).
T2 chain: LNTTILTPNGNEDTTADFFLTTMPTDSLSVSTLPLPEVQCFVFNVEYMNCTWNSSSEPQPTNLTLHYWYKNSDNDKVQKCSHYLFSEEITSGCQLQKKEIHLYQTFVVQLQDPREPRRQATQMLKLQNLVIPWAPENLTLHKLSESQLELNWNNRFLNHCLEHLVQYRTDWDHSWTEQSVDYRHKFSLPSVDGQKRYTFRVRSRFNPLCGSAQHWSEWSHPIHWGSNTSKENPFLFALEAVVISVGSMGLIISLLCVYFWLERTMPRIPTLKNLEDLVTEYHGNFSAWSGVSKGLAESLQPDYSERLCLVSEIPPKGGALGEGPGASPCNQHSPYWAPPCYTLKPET
Description: BLI; in presence of hIL-21R (hIL-21R/hγc).

In another test the target is murine IL-21R (murine, UniProt Q9JHX3 20-529). The test is described as follows: BLI. Background: In BLI a coated tip is dipped into the sample, and binding shifts an interference pattern.
The next test concerns the target human IL-21 receptor (human, UniProt Q9HBE5 20-538). The test is described as follows: BLI.

Sequence of human IL-21 receptor (Q9HBE5 20-538): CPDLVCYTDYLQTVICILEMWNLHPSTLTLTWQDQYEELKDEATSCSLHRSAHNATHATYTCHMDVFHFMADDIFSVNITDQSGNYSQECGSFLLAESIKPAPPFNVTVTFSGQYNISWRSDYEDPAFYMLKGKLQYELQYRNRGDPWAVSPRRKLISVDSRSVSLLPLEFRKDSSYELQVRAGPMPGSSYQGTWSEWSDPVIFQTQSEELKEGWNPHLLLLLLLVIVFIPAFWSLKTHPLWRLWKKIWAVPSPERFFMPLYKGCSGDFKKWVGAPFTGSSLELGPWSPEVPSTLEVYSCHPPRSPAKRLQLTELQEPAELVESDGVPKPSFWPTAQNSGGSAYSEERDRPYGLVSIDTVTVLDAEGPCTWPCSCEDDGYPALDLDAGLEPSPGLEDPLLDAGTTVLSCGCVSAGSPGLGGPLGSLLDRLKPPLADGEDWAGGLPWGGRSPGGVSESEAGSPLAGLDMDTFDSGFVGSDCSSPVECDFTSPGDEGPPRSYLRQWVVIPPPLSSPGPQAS

B1: 21h10 (designed binder)
chain: DEEELKEIMKEAAECARKELEKLDNTDEDTRWLKITLKKIVRMANRIVRMREREADSKRFEIRMRGLIDIADHVKREFASEDLKEVMERAKSAAQKALGRWL
The Kd is a measure of binding affinity in units of concentration. B1: the Kd with murine γc turned out to be 93.3 nM; in test [1], 85.5 nM; with murine IL-21R it was 5.17 nM; with human IL-21 receptor, 0.0737 nM.
